In this data set the test system is Escherichia coli TOP10. Kind of data set: shrunken log2 fold change of peptide-encoding DNA abundance (4.5 h post-induction vs induction); higher = less antimicrobial activity (less host growth inhibition). Conditions: time post-induction: 4.5 h; library: site-saturation at positions 5, 18, 19, 20.
Take RRIRNRPPRLPRPRPRPGKQPRP: the “shrunken log2 fold change” value was -0.406.

For the sequence RRIRMRPPRLPRPRPRPTWCPRP, the “shrunken log2 fold change” value is -0.0681.

Consider RRIRERPPRLPRPRPRPLIYPRP, for which the “shrunken log2 fold change” value is -0.682. Under RRIRARPPRLPRPRPRPYSLPRP stands -0.187. On to RRIRPRPPRLPRPRPRPSTYPRP, for which the “shrunken log2 fold change” value is -0.415. Consider RRIRIRPPRLPRPRPRPKGYPRP, for which the “shrunken log2 fold change” value is -0.0143. For the sequence RRIRHRPPRLPRPRPRPRYEPRP, the “shrunken log2 fold change” value is -0.0765. As for RRIRDRPPRLPRPRPRPWRSPRP, the “shrunken log2 fold change” value was found to be 0.105.

As for RRIRFRPPRLPRPRPRPMPQPRP, the “shrunken log2 fold change” value is -0.0791. In the case of RRIRIRPPRLPRPRPRPNKGPRP, the “shrunken log2 fold change” value was -0.137. To RRIRSRPPRLPRPRPRPAGIPRP belongs 0.138; to RRIRKRPPRLPRPRPRPCFIPRP, -0.13. As to RRIRVRPPRLPRPRPRPHCLPRP, the “shrunken log2 fold change” value is -1.63.

For the sequence RRIRQRPPRLPRPRPRPGQQPRP, the “shrunken log2 fold change” value was -0.0212. As for RRIRFRPPRLPRPRPRPEAKPRP, the “shrunken log2 fold change” value amounted to 0.0369. To RRIRCRPPRLPRPRPRPPKEPRP belongs 0.203; to RRIRRRPPRLPRPRPRPALIPRP, 1.05. Under RRIRQRPPRLPRPRPRPQCLPRP stands -0.122; under RRIRPRPPRLPRPRPRPIMQPRP, -0.391. As to RRIRSRPPRLPRPRPRPLRMPRP, the “shrunken log2 fold change” value is 0.0358. Regarding RRIRHRPPRLPRPRPRPTGMPRP, the “shrunken log2 fold change” value is 0.156. Turning to RRIRDRPPRLPRPRPRPIRGPRP, the “shrunken log2 fold change” value was -0.0417.

As to RRIRNRPPRLPRPRPRPATWPRP, the “shrunken log2 fold change” value was -0.000853. To RRIRCRPPRLPRPRPRPCWGPRP belongs -0.195; to RRIRHRPPRLPRPRPRPWDAPRP, -0.101. Regarding RRIRDRPPRLPRPRPRPCCPPRP, the “shrunken log2 fold change” value is -0.449.

In the case of RRIRWRPPRLPRPRPRPVGLPRP, the “shrunken log2 fold change” value was 0.568. To RRIRGRPPRLPRPRPRPCPVPRP belongs 0.197; to RRIRRRPPRLPRPRPRPHAMPRP, 0.191. To RRIRRRPPRLPRPRPRPHFDPRP belongs 0.216; to RRIRYRPPRLPRPRPRPLPPPRP, 0.0954; to RRIRHRPPRLPRPRPRPRFIPRP, -0.135.

In the case of RRIRHRPPRLPRPRPRPACAPRP, the “shrunken log2 fold change” value stood at 0.436. As for RRIRHRPPRLPRPRPRPKPRPRP, the “shrunken log2 fold change” value was determined as 0.177.

RRIRERPPRLPRPRPRPSVSPRP: the “shrunken log2 fold change” value is -0.335. Under RRIRCRPPRLPRPRPRPTEDPRP stands -0.0639; under RRIRWRPPRLPRPRPRPAHGPRP, 0.707. RRIRVRPPRLPRPRPRPWVLPRP: the “shrunken log2 fold change” value amounted to 0.054.

Turning to RRIRWRPPRLPRPRPRPVAVPRP, the “shrunken log2 fold change” value stood at 0.465.

With RRIRHRPPRLPRPRPRPVHTPRP, the “shrunken log2 fold change” value was -0.292.

On to RRIRLRPPRLPRPRPRPSGPPRP, for which the “shrunken log2 fold change” value was -0.216. Under RRIRNRPPRLPRPRPRPMTLPRP stands -0.337; under RRIRFRPPRLPRPRPRPVAIPRP, -0.0527; under RRIRRRPPRLPRPRPRPYRDPRP, -0.111. To RRIRRRPPRLPRPRPRPDMRPRP belongs 0.415; to RRIRRRPPRLPRPRPRPCGKPRP, 0.254. To RRIRLRPPRLPRPRPRPFQFPRP belongs -0.255; to RRIRNRPPRLPRPRPRPSMHPRP, -0.805. As for RRIRDRPPRLPRPRPRPLRCPRP, the “shrunken log2 fold change” value amounted to 0.177.

For the sequence RRIRIRPPRLPRPRPRPWGRPRP, the “shrunken log2 fold change” value is -0.239.

With RRIRKRPPRLPRPRPRPKLNPRP, the “shrunken log2 fold change” value was found to be 0.218. To RRIRKRPPRLPRPRPRPCVYPRP belongs 0.109; to RRIRQRPPRLPRPRPRPFTCPRP, -0.158; to RRIRFRPPRLPRPRPRPAEYPRP, -0.397. In the case of RRIRRRPPRLPRPRPRPVIRPRP, the “shrunken log2 fold change” value worked out at 0.1. To RRIRTRPPRLPRPRPRPWCIPRP belongs -0.19; to RRIRPRPPRLPRPRPRPFRDPRP, -0.118; to RRIRNRPPRLPRPRPRPTTHPRP, 0.102. Under RRIRSRPPRLPRPRPRPQLWPRP stands 0.0725. Regarding RRIRDRPPRLPRPRPRPMFCPRP, the “shrunken log2 fold change” value was determined as 2.64. Under RRIRMRPPRLPRPRPRPLQEPRP stands 2.68; under RRIRERPPRLPRPRPRPSFYPRP, -0.308.

RRIRGRPPRLPRPRPRPNRGPRP: the “shrunken log2 fold change” value was -0.0157. To RRIRARPPRLPRPRPRPETIPRP belongs 0.541. On to RRIRFRPPRLPRPRPRPVERPRP, for which the “shrunken log2 fold change” value was 0.0308. To RRIRGRPPRLPRPRPRPFMYPRP belongs 0.345; to RRIRNRPPRLPRPRPRPARSPRP, 0.679; to RRIRSRPPRLPRPRPRPTFIPRP, -0.173. To RRIRWRPPRLPRPRPRPDFMPRP belongs -0.015; to RRIRNRPPRLPRPRPRPMGMPRP, -0.0761; to RRIRVRPPRLPRPRPRPRIIPRP, -0.0581. Under RRIRVRPPRLPRPRPRPNEGPRP stands -0.00311; under RRIRARPPRLPRPRPRPCNAPRP, 0.0237; under RRIRGRPPRLPRPRPRPTRPPRP, 1.16.

As for RRIRNRPPRLPRPRPRPNYVPRP, the “shrunken log2 fold change” value was -0.0488. Regarding RRIRDRPPRLPRPRPRPCYEPRP, the “shrunken log2 fold change” value was 0.00345. Consider RRIRVRPPRLPRPRPRPCCIPRP, for which the “shrunken log2 fold change” value was -0.0914. To RRIRLRPPRLPRPRPRPACGPRP belongs 0.412; to RRIRWRPPRLPRPRPRPSQMPRP, -0.681; to RRIRARPPRLPRPRPRPEPAPRP, 1.43. Regarding RRIRFRPPRLPRPRPRPLCLPRP, the “shrunken log2 fold change” value is -0.431. To RRIRLRPPRLPRPRPRPMVAPRP belongs -0.147; to RRIRMRPPRLPRPRPRPFRDPRP, 0.00601.

With RRIRWRPPRLPRPRPRPDNMPRP, the “shrunken log2 fold change” value was -0.0443.

For RRIRYRPPRLPRPRPRPMNHPRP, the “shrunken log2 fold change” value is -0.262. RRIRARPPRLPRPRPRPCYHPRP: the “shrunken log2 fold change” value is -0.0657. Under RRIRQRPPRLPRPRPRPNNWPRP stands -0.0942; under RRIRSRPPRLPRPRPRPMCYPRP, -0.0971; under RRIRHRPPRLPRPRPRPFWDPRP, -0.0244. Under RRIRWRPPRLPRPRPRPPSNPRP stands 0.133. On to RRIRARPPRLPRPRPRPYQKPRP, for which the “shrunken log2 fold change” value is -0.0277. Under RRIRGRPPRLPRPRPRPDVKPRP stands 0.356; under RRIRERPPRLPRPRPRPNEMPRP, 0.0665.

RRIRARPPRLPRPRPRPSGYPRP: the “shrunken log2 fold change” value was 0.094. To RRIRIRPPRLPRPRPRPNYEPRP belongs -0.396. As to RRIRHRPPRLPRPRPRPYQNPRP, the “shrunken log2 fold change” value was 0.0439.

For RRIRYRPPRLPRPRPRPGCLPRP, the “shrunken log2 fold change” value was 1.79. Take RRIRPRPPRLPRPRPRPVVCPRP: the “shrunken log2 fold change” value was 0.53. Take RRIRQRPPRLPRPRPRPALRPRP: the “shrunken log2 fold change” value was -0.00883. To RRIRGRPPRLPRPRPRPQSEPRP belongs 0.273; to RRIRQRPPRLPRPRPRPKFIPRP, -0.0852; to RRIRNRPPRLPRPRPRPRNFPRP, -0.132. On to RRIRWRPPRLPRPRPRPPEIPRP, for which the “shrunken log2 fold change” value is -0.0659. With RRIRTRPPRLPRPRPRPIRVPRP, the “shrunken log2 fold change” value was -0.519. Regarding RRIRCRPPRLPRPRPRPKGEPRP, the “shrunken log2 fold change” value amounted to 0.0643. Under RRIRARPPRLPRPRPRPLRFPRP stands 0.396; under RRIRSRPPRLPRPRPRPSIKPRP, -0.613. On to RRIRSRPPRLPRPRPRPSTDPRP, for which the “shrunken log2 fold change” value is -0.168. In the case of RRIRKRPPRLPRPRPRPLAPPRP, the “shrunken log2 fold change” value came out at 0.65. To RRIRHRPPRLPRPRPRPTYDPRP belongs -0.0607; to RRIRDRPPRLPRPRPRPPYHPRP, -0.302. In the case of RRIRSRPPRLPRPRPRPHFAPRP, the “shrunken log2 fold change” value came out at 0.0285. Under RRIRNRPPRLPRPRPRPPKEPRP stands -0.166; under RRIRHRPPRLPRPRPRPKERPRP, -0.0122.

Regarding RRIRYRPPRLPRPRPRPGWQPRP, the “shrunken log2 fold change” value was determined as 0.015. Consider RRIRNRPPRLPRPRPRPMPVPRP, for which the “shrunken log2 fold change” value is -0.139. As to RRIRDRPPRLPRPRPRPQFDPRP, the “shrunken log2 fold change” value is -0.0102.

Regarding RRIRKRPPRLPRPRPRPPTEPRP, the “shrunken log2 fold change” value came out at 0.395. For the sequence RRIRKRPPRLPRPRPRPDTPPRP, the “shrunken log2 fold change” value is 0.546.

Consider RRIRMRPPRLPRPRPRPVGYPRP, for which the “shrunken log2 fold change” value worked out at 0.515. Under RRIRQRPPRLPRPRPRPLYQPRP stands -0.185. As for RRIRMRPPRLPRPRPRPANDPRP, the “shrunken log2 fold change” value was found to be 0.0988.

Consider RRIRFRPPRLPRPRPRPWLWPRP, for which the “shrunken log2 fold change” value was -0.052. For the sequence RRIRLRPPRLPRPRPRPNTQPRP, the “shrunken log2 fold change” value was -0.0732.

RRIRMRPPRLPRPRPRPHLWPRP: the “shrunken log2 fold change” value worked out at 0.374.

The values above are taken from the supplement of paper PMC9112550, “Optimization of the antimicrobial peptide Bac7 by deep mutational scanning” (BMC Biology, 2022).
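Note: peptides expressed intracellularly from a pBAD plasmid library in pooled LB shake-flask culture, induced with 0.3% L-arabinose, DNA abundance read by NGS, three biological replicates, DESeq2 with apeglm shrinkage.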
